Source: doi:10.1101/2023.01.18.524603

Tests used:
Assay in all cases: EMSA
Details in all cases: EMSA: 25 mM Tris-HCl pH 7.4, 100 mM NaCl, 5 ng DNA in 10 ul, 20 min, room temperature, AFM: 25 mM HEPES-NaOH pH 7.4, 5 mM MgCl2, 50 mM NaCl, 10% glycerol
[1] = target: T1, Rec114C-Mei4N (RM-TDB) (Saccharomyces cerevisiae) (UniProt P32841+P29467)
T1 sequence 1: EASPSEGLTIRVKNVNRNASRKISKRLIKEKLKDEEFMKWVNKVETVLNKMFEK
T1 sequence 2: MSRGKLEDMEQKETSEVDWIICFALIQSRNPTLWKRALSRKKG

[2] = tested on: Rec114(388-428) K403A/K407A-Mei4N (Saccharomyces cerevisiae)
[3] = tested on: Rec114(388-428) R395A/K396A-Mei4N (Saccharomyces cerevisiae)
[4] = tested on: Rec114(388-428)-Mei4N (Saccharomyces cerevisiae)
[5] = tested on: Rec114(388-428)-Mei4(13-43) (Saccharomyces cerevisiae)
[6] = tested on: Rec114C-Mei4N-ybbR-LD650 (Saccharomyces cerevisiae)
[7] = tested on: Rec114C-Mei4N-ybbR (Saccharomyces cerevisiae)
[8] = tested on: Rec114(388-428) K417A/K424A-Mei4N (Saccharomyces cerevisiae)
[9] = tested on: Rec114(325-428)-Mei4(1-90) (Saccharomyces cerevisiae)
[10] = tested on: Rec114(386-428)-Mei4N (Saccharomyces cerevisiae)
[11] = tested on: Rec114(388-428) K399A/R400A-Mei4N (Saccharomyces cerevisiae)
[12] = tested on: Rec114C (Saccharomyces cerevisiae)

Substance: 150-bp linear DNA
- K half [1]: 90 nM
- K half [2]: 1000 nM
- K half [3]: 1000 nM
- K half [4]: 110 nM
- K half [5]: 100 nM
- K half [6]: 90 nM
- K half [7]: 90 nM
- K half [8]: 900 nM
- K half [9]: 90 nM
- K half [10]: 110 nM
- K half [11]: 2000 nM

Substance: 1000-bp linear DNA
- K half [1]: 80 nM
- K half [12]: 300 nM
